Consider one substance from PMC9262582.

The target in the experiment is Rum pol (RumA′2B), His-tagged on RumB (integrative conjugative element R391).

Substance “S. aureus RecA (from UniProt A5ISG9 1-347) (natural protein)” registered a primer extension (% PE) by Rum Mut-Sa transactivated with Sa RecA* of 4 % PE.
